This is an account of results in patent publication US20210346432A1.

The target in assay [1] is T1, ET140-p25 (human).
T1 sequence (peptide, N-terminal biotin): SGSGLRCSSNTPPLTCQRY
As to the kind of experiment: peptide ELISA on streptavidin plate, antibody 1 ug/mL. (In an ELISA, binding on a coated surface is turned into a signal by an enzyme label.)

The target in assay [2] is T2, ET140-p26 (human).
T2 sequence (peptide, N-terminal biotin): SGSGRCSSNTPPLTCQRYC
The description is as above.

As to 901mIgG (antibody), the A450 in assay [1] is 0.492; in assay [2], 0.162.
